Measurements reported in patent US20250388646A1.

Columns and labels:
Assay in all cases: cell-based or functional assay
[1] = biological target: FAS-(CD27) Fas redirector
[2] = biological target: dominant negative Fas receptor (dnFAS)
[3] = biological target: FAS-(MyD88-CD40) Fas redirector
FAS-(41BB) construct = FAS-(41BB) construct (UniProt Q07011)

Measured: percentage of viable cells after 24 hours of exposure to CH11

FAS-(CD27) Fas redirector, sequence (chain, as listed by the source): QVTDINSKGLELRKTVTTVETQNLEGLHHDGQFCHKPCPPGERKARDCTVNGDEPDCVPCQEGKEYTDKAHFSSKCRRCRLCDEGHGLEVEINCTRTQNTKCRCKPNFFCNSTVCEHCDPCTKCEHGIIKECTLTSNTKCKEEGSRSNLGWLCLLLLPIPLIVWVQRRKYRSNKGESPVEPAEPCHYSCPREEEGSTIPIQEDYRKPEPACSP
UniProt Q07011, sequence (Q07011 other isoform, or with tags, fused parts or gaps): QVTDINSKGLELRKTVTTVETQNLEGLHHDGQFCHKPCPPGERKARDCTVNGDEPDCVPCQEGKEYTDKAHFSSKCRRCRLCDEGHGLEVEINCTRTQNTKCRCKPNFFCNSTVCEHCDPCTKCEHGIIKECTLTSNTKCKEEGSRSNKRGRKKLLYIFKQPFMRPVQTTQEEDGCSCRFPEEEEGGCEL
FAS-(MyD88-CD40) Fas redirector, sequence (chain, as listed by the source): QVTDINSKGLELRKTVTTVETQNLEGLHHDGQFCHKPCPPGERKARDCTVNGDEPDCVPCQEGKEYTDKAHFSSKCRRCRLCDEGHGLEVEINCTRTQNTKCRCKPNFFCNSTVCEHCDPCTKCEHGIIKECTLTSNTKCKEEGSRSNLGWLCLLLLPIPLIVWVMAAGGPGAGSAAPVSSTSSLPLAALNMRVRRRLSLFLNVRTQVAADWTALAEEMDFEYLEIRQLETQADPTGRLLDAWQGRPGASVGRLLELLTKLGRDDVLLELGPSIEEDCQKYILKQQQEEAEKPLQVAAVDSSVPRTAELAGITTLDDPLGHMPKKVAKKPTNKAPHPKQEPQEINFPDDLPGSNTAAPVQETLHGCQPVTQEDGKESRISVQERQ

CH11 (Sigma-Aldrich), a Fas agonist (antibody)
> 60%: all assays above
